# Measurements as given in US9969998B2, “Compositions of adenosine deaminase-2 (ADA2), variants thereof and methods of using same” (Halozyme, Inc., priority 2014, dated 2018).
# “Also recorded” adds a separate entry of the source. Read-outs that look alike come from different tables or passages of the source.
# Legend:
# [1] = cited from earlier work
# [2] = tested on: mixture of NK and T (NK/T) cells; assay: T-cell or NK/T cell proliferation assay in the presence of adenosine; assay type: cell-based
# Excerpt: Reversal of adenosine-mediated immunosuppression by any ADA2 provided herein, including wildtype and variants, conjugates and other modified forms thereof, and combination therapy using any ADA2 provided herein and other agents, can be examined in vitro, for example, by performing proliferation assays. Such assays include, but are not limited to T-cell proliferation assays or a mixture of NK and T (NK/T) cell proliferation assays, in the presence of adenosine and/or any ADA2 provided herein and/or any other combination therapy agents. For example, the immunosuppressive effect of adenosine on various immune cells, such as lymphocytes, natural killer (NK) cells, polymorphonuclear granulocytes, and phagocytic cells such as tissue macrophages, can be assessed by proliferation assays using the immune cells or mixtures thereof, such as the mixture of NK and T (NK/T) cells prepared from peripheral blood mononuclear cells (PBMC). The effect of any ADA2 provided herein and any other combination therapy agents provided herein, can be assessed by comparing the results of such proliferation assays in the presence of adenosine, with or without the addition of any ADA2 provided herein and/or any other combination therapy agents provided herein, including immune checkpoint inhibitors. Combination therapy agents are described in Section H.4 below. […]
# [3] = adenosine deaminase activity; listed as wildtype ADA2; cited from earlier work
# [4] = tested on: CT26 murine colon cancer tumor; assay: Tumor growth inhibition, CT26 syngeneic tumor model; assay type: in vivo, BALB/c mice
# Description: Forty-four (44) male BALB/c mice were inoculated subcutaneously with 5×10^6 murine colon cancer tumor cells (CT26, ATCC CRL-2638) in 0.1 mL injection volume per animal. Tumor volume was determined using digital calipers by caliper measurement of the length (L) and width (W) of the solid tumor masses. Tumor volume (TV) was calculated as: (L×W^2)/2. Tumors were allowed to grow and tumor bearing mice were staged until when the tumors were palpable and measured to be about 50-100 mm^3.
# PEGylated rHuADA2-K374D (K371D by mature numbering) was prepared as described in Example 8.A, with minor modifications to generate a preparation in which approximately 100% of the molecules were PEGylated as assessed by SDS-PAGE.
# For treatment, animals were randomized into four groups (n=8/group). CT26 tumor bearing mice were then injected intravenously (IV) every other day, at 3 mg/kg body weight, 10 mg/kg body weight or 30 mg/kg body weight doses of PEG-K374D (PEG-K371D by mature numbering) or vehicle control (buffer only) every other day. Tumor volume was measured at day 0 and 8 using caliper measurement as described above. […] One mouse from the vehicle group was excluded due to significant tumor growth inhibition.
# [5] = day 8; 3 mg/kg IV every other day
# [6] = day 8; 10 mg/kg IV every other day
# [7] = day 8; 30 mg/kg IV every other day
Molecule,"Km ([1]; for adenosine, wild-type enzyme in humans, read-out: Km)",Km ([1]; read-out: Km for adenosine),reversal of adenosine-mediated immunosuppression [2],pH optimum [3],Average Tumor Volume ([4]; 3 mg/kg IV every other day; day 8),Tumor Growth Inhibition ([4]; 3 mg/kg IV every other day; day 8; vs vehicle),Average Tumor Volume ([4]; 10 mg/kg IV every other day; day 8),Tumor Growth Inhibition ([4]; 10 mg/kg IV every other day; day 8; vs vehicle),Average Tumor Volume ([4]; 30 mg/kg IV every other day; day 8),Tumor Growth Inhibition ([4]; 30 mg/kg IV every other day; day 8; vs vehicle),"Average Tumor Volume [4, 5]","tumor growth inhibition (TGI) [4, 5]","Average Tumor Volume [4, 6]","tumor growth inhibition (TGI) [4, 6]","Average Tumor Volume [4, 7]","tumor growth inhibition (TGI) [4, 7]"
"ADA2: wild-type human adenosine deaminase 2, mature form SEQ ID NO:5, homodimer (protein, listed as Homo sapiens, ADA2 mature protein) IDETRAHLLLKEKMMRLGGRLVLNTKEELANERLMTLKIAEMKEAMRTLIFPPSMHFFQAKHLIERSQVFNILRMMPKGAALHLHDIGIVTMDWLVRNVTYRPHCHICFTPRGIMQFRFAHPTPRPSEKCSKWILLEDYRKRVQNVTEFDDSLLRNFTLVTQHPEVIYTNQNVVWSKFETIFFTISGLIHYAPVFRDYVFRSMQEFYEDNVLYMEIRARLLPVYELSGEHHDEEWSVKTYQEVAQKFVETHPEFIGIKIIYSDHRSKDVAVIAESIRMAMGLRIKFPTVVAGFDLVGHEDTGHSLHDYKEALMIPAKDGVKLPYFFHAGETDWQGTSIDRNILDALMLNTTRIGHGFALSKHPAVRTYSWKKDIPIEVCPISNQVLKLVSDLRNHPVATLMATGHPMVISSDDPAMFGAKGLSYDFYEVFMGIGGMKADLRTLKQLAMNSIKYSTLLESEKNTFMEIWKKRWDKFIADVATK",~2000 µM,~2250 µM,reverse the adenosine-dependent immunosuppression; also recorded: reversed,~6.5,–,–,–,–,–,–,–,–,–,–,–,–
"PEG-K374D: rHuADA2-K374D (SEQ ID NO:20) PEGylated on surface exposed lysines with linear PEG-20K (conjugate, linear PEG-20K on surface lysines; human ADA2 K371D, mature numbering) IDETRAHLLLKEKMMRLGGRLVLNTKEELANERLMTLKIAEMKEAMRTLIFPPSMHFFQAKHLIERSQVFNILRMMPKGAALHLHDIGIVTMDWLVRNVTYRPHCHICFTPRGIMQFRFAHPTPRPSEKCSKWILLEDYRKRVQNVTEFDDSLLRNFTLVTQHPEVIYTNQNVVWSKFETIFFTISGLIHYAPVFRDYVFRSMQEFYEDNVLYMEIRARLLPVYELSGEHHDEEWSVKTYQEVAQKFVETHPEFIGIKIIYSDHRSKDVAVIAESIRMAMGLRIKFPTVVAGFDLVGHEDTGHSLHDYKEALMIPAKDGVKLPYFFHAGETDWQGTSIDRNILDALMLNTTRIGHGFALSKHPAVRTYSWDKDIPIEVCPISNQVLKLVSDLRNHPVATLMATGHPMVISSDDPAMFGAKGLSYDFYEVFMGIGGMKADLRTLKQLAMNSIKYSTLLESEKNTFMEIWKKRWDKFIADVATK",–,–,–,–,257.72 mm^3,50%,207.84 mm^3,63%,187.32 mm^3,68%,257.72 mm^3,50%,207.84 mm^3,63%,187.32 mm^3,68%
